The target of this data set is T1, F-box protein 28 (FBXO28).
T1 chain: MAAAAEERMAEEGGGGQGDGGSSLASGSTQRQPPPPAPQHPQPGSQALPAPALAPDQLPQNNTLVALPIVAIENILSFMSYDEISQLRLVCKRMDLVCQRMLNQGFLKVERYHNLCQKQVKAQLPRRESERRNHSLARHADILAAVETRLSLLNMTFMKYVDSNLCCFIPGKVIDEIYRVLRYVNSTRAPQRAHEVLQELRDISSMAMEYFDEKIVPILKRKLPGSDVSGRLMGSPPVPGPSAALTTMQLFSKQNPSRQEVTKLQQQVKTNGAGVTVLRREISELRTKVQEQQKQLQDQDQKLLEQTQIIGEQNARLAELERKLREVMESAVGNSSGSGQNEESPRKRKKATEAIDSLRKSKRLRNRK

B1: 6-phosphofructo-2-kinase/fructose-2,6-biphosphatase 4 (PFKFB4) (protein)
chain: MASPRELTQNPLKKIWMPYSNGRPALHACQRGVCMTNCPTLIVMVGLPARGKTYISKKLTRYLNWIGVPTREFNVGQYRRDVVKTYKSFEFFLPDNEEGLKIRKQCALAALRDVRRFLSEEGGHVAVFDATNTTRERRATIFNFGEQNGYKTFFVESICVDPEVIAANIVQVKLGSPDYVNRDSDEATEDFMRRIECYENSYESLDEDLDRDLSYIKIMDVGQSYVVNRVADHIQSRIVYYLMNIHVTPRSIYLCRHGESELNLKGRIGGDPGLSPRGREFAKSLAQFISDQNIKDLKVWTSQMKRTIQTAEALGVPYEQWKVLNEIDAGVCEEMTYEEIQDNYPLEFALRDQDKYRYRYPKGESYEDLVQRLEPVIMELERQENVLVICHQAVMRCLLAYFLDKAAEQLPYLKCPLHTVLKLTPVAYGCKVESIFLNVAAVNTHRDRPQNVDISRPPEEALVTVPAHQ
Take B1: the “HIF1a protein level (Western blot) after knockdown in GSCs” value is “silencing of both FBXO28 and PFKFB4 in the GSCs rescued the level of HIF1a”; the “ubiquitylation of HIF1a (ubiquitin immunoblot on immunoprecipitated HIF1a upon MG132 treatment)” value was “the ubiquitylation of HIF1a is decreased in cells overexpressing PFKFB4”.

Values taken from US20210033615.
